# Experimental data: patent publication US20190359698A1 (YAMAGUCHI UNIVERSITY, published 2019)
# Residue numbers refer to the chain shown, from its start.
# B1: IgG clone TF1413-02d028 (antibody, V domains shown)
# VH: QVQLKESGPELEKPGASVKISCKASGYSFTGYNMNWVKQSNGKSLEWIGNIDPYYGGTSYNQKFKGKATLTVDKSSSTAYMQLKSLTSEDSAVYYCARGDYRAYYFDYWGQGTTLTVSS
# VL: DIQMTQSPKFMSTSVGDRVSITCKASQNVRTAVAWYQQKPGQSPKALIYLASNRHTGVPDRFTGSGSGTDFTLTISNVQSEDLADYFCLQHWNYPLTFGAGTKLELKR
# notes: also called TF1413-02d028 IgG antibody; scFv clone [TF1413-02d028] antibody
# B2: IgG clone TF1413-02e040 (antibody, V domains shown)
# VH: EVMLVESGPELVKPGASMKISCKASGYSFTGYTMNWVKQSHGKNLEWIGLINPYNGGTSYNQNFKGKATLTVDKSSSTAYMELLSLTSEDSAVYYCARGYYGRFDYWGQGTTLTVSS
# VL: B1 VL with Q3L, M4L
# notes: also called TF1413-02e040 IgG antibody
# B3: IgG clone TF1413-03e034 (antibody, V domains shown)
# VH: B1 VH with Q1E, K5Q, E6Q, D100N, R102G, A103Y, Y105A, F106M, T114S, L115V
# VL: B1 VL with Q3V, T5S
# notes: also called TF1413-03e034 IgG antibody
# B4: IgG clone TF1413-03e015 (antibody, V domains shown)
# VH: EVQLQQSGPELVKPGASMKISCKASGYSFTGYTMNWVKQSHGKNLEWIGLINPYNGGTSYNQKFKGKATLTVDKSSSTAYMELLSLTSEDSAVYYCARGDYYPPYAMDYWGQGTSVTVSS
# VL: DIVMSQSPKFMSTSVGDRVSVTCKASQNVGTNVAWYQQKPGQSPKPLIYSASYRYSGVPDRFTGSGSGTDFTLTISNVQSEDLAEYFCQQYNRYPLTFGVGTKLEIKR
# notes: also called TF1413-03e015 IgG antibody
# B5: IgG clone TF1413-02e014 (antibody, V domains shown)
# VH: QVQLKQSGAELVRSGASVKLSCTASGFNIKDYYMHWVKQRPEQGLEWIGWIDPENGDTEYAPKFQGKATMTADTSSNTAYLQLSSLTSEDTAVYYCNAGYYDYDGYAMDYWGQGTSVTVSS
# VL: DIVLTQSPKFMSTSVGDRVSITCKASQDVGTAVAWYQQKPGQSPKLLIYWASTRHTGVPDRFTGSGSGTDFTLTISNVQSEDLADYFCQQYSSYPLTFGGGTKLEIKR
# notes: also called TF1413-02e014 IgG antibody
# B6: IgG clone TF1413-03e005 (antibody, V domains shown)
# VH: B5 VH with Q6E, G99F, S121R
# VL: DVVMTQTPSSLSASLGERVSLTCRASQEISGYLSWLQQKPDGTIKRLIYAASTLDSGVPKRFSGSRSGSDYSLTISSLESEDFADYYCLQYASYPLTFGAGTKLELKR
# notes: also called TF1413-03e005 IgG antibody
# B7: IgG clone TF1413-02e004 (antibody, V domains shown)
# VH: QVQLQQSGAELVKPGAPVKLSCKASGYTFTSYWMNWVKQRPGRGLEWIGRIDPSDSETHYNQKFKDEATLTVDKSSSTAYIQLSSLTSEDSAVYYCARGYYAMDYWGQGTSVTVSS
# VL: DIVLTQSPKFMSTSVGDRVSITCKASQDVSTAVAWYQQKPGQSPKLLIYSASYRYTGVPDRFTGSGSGTDFTFTISSVQAEDLAVYYCQQHYSTPTFGGGTKLEIKR
# notes: also called TF1413-02e004 IgG antibody
# B8: IgG clone TF1413-02d039 (antibody, V domains shown)
# VH: EVKLVESGGGLVKPGGSLKLSCAASGFAFSSYDMSWVRQTPEKRLEWVAYISSGGGSTYYPDTVKGRFTISRDNAKNTLYLQMSSLKSEDTAMYYCARRGLRRAMDYWGQGTSVTVSS
# VL: DVVMTQTPLSLPVSLGDQASISCRSSQSLVHSNGNTYLHWYLQKPGQSPKLLIYKVSNRFSGVPDRFSGSGSGTDFTLKISRVEAEDLGVYFCSQSTHVPLTFGAGTKLELKR
# notes: also called TF1413-02d039 IgG antibody
# B9: IgG clone TF1413-02e030 (antibody, V domains shown)
# VH: EVQLQQSGAELVRPGALVKLSCKASGFNIKDYYMHWVKQRPEQGLEWIGWIDPENGNTIYDPKFQGKASITADTSSNTAYLQLSSLTSEDTAVYYCAISTMITTLDYWGQGTTLTVSS
# VL: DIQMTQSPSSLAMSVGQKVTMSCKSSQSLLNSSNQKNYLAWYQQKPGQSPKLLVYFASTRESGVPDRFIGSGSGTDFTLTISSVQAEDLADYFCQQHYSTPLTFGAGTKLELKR
# notes: also called TF1413-02e030 IgG antibody
# B10: IgG clone TF1413-03e004 (antibody, V domains shown)
# VH: B7 VH with Q5K, E67K, A102G, M103S, D104N, S111T, V112L
# VL: B4 VL with V3K, S5T, P46A, R93S, V100A, I106L
# notes: also called TF1413-03e004 IgG antibody
# Target: T1, GPC3 N-terminal fragment (polypeptide consisting of the amino acid sequence represented by SEQ ID NO: 155) (human)
# T1 construct: domain: transmembrane domain; also called GPC3 N-terminal fragment-expressing cell line; N-terminal polypeptide of GPC3; not shown: HA tag added to the N terminus by the pDisplay vector; myc tag added to the C terminus of the PDGFR by the pDisplay vector
# T1 sequence (P09619 other isoform, or with tags, fused parts or gaps): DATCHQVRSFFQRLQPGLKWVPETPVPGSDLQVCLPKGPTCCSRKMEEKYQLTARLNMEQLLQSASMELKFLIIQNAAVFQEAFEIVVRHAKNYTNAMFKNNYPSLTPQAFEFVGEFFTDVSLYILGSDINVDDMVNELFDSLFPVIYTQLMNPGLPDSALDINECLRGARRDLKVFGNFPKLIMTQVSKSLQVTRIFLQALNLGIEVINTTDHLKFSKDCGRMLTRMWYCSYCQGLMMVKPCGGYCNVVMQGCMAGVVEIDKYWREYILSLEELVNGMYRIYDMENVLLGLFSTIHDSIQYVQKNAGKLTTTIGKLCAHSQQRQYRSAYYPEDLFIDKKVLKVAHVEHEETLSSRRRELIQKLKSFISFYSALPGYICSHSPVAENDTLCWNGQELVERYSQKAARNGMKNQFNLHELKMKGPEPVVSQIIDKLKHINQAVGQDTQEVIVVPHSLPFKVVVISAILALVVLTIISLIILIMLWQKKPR
# Test: FCM of IgG on GPC3 N-terminal fragment-expressing cell line
row,binding result,Binder
1,binds,B1
2,binds,B2
3,binds,B3
4,no binding,B4
5,binds,B5
6,binds,B6
7,binds,B7

# Target: T2, GPC3 C-terminal fragment (polypeptide consisting of the amino acid sequence represented by SEQ ID NO: 156) (human)
# T2 construct: domain: transmembrane domain; also called GPC3 C-terminal fragment-expressing cell line; C-terminal polypeptide of GPC3; not shown: HA tag added to the N terminus by the pDisplay vector; myc tag added to the C terminus of the PDGFR by the pDisplay vector
# T2 sequence (P09619 other isoform, or with tags, fused parts or gaps): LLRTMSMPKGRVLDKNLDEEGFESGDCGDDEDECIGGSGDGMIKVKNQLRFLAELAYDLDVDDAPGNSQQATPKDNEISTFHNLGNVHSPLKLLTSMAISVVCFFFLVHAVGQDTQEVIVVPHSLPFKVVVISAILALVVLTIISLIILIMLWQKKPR
# Test: FCM of IgG on GPC3 C-terminal fragment-expressing cell line
row,binding result,Binder
1,no binding,B8
2,no binding,B1
3,no binding,B2
4,no binding,B3
5,no binding,B9
6,no binding,B5
7,no binding,B6
8,no binding,B7
9,no binding,B10
